Data on 1 protein can be found in publication PMC3586275 (Biochemistry, 2009).

This data set concerns the molecule itself. The data set is described as follows: SEC. For orientation: SEC sorts molecules by how far they enter the pores of the column.

Usually stoichiometry N stands for a count of units in the complex or per binding partner.

B1: streptococcal coaggregation regulator (ScaR) (natural protein, Streptococcus gordonii, UniProt Q9RFN3 1-215, looked up)
chain: MTPNKEDYLKCLYELGTRHNKITNKEIAQLMQVSPPAVTEMMKKLLAEELLIKDKKAGYLLTDLGLKLVSDLYRKHRLIEVFLVHHLGYTTEEIHEEAEVLEHTVSDHFVERLDQLLDYPKACPHGGTIPAKGELLVEKHKLTLEEAKEKGDYILARVHDNFDLLTYLERNGLQVGKTIRFLGYDDFSHLYSLEVDGQEIQLAQPIAQQIYVEKI
For B1, the “stoichiometry N” value was 2.
